Experimental data from patent publication US20100273722.

Assay: sedimentation equilibrium AUC, self-association, 25 C

pancreatic peptide YY (PYY)
% monomer at 30 µM: 94%
